In US20180280549A1 (METAFORA BIOSYSTEMS, published 2018):

Experiments:
[1] = molecular target: T1, ASCT1 (glutamate and neutral amino acid transporter) (human, UniProt P43007 1-532); experiment: flow cytometry on pancreatic tumor cell lines (endogenous transporter; ASCT-1/ASCT-2 is the target by Table 1), anti-mouse A647 detection; Capan1 also detected (data not shown)
T1 construct: Endogenous transporter on human pancreatic tumor cell lines; also called human ASCT1
T1 sequence: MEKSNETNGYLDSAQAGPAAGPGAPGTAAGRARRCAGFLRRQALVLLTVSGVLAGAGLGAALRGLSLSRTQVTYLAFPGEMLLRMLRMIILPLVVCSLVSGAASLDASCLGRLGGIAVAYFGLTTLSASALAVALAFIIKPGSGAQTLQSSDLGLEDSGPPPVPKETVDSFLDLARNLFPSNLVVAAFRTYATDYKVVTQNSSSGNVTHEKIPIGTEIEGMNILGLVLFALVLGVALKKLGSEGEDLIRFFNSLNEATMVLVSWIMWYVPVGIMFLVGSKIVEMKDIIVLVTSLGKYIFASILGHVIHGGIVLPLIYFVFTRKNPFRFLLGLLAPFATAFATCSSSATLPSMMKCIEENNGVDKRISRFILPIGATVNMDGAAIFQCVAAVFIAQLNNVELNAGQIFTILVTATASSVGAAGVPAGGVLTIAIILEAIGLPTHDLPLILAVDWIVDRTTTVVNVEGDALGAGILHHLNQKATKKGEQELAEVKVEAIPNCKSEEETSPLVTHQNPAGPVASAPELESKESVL

[2] = molecular target: T2, ASCT2 (glutamine and other neutral amino acid transporter) (human, UniProt Q15758 1-541); experiment: as above
T2 construct: Endogenous transporter on human pancreatic tumor cell lines; also called human ASCT2
T2 sequence: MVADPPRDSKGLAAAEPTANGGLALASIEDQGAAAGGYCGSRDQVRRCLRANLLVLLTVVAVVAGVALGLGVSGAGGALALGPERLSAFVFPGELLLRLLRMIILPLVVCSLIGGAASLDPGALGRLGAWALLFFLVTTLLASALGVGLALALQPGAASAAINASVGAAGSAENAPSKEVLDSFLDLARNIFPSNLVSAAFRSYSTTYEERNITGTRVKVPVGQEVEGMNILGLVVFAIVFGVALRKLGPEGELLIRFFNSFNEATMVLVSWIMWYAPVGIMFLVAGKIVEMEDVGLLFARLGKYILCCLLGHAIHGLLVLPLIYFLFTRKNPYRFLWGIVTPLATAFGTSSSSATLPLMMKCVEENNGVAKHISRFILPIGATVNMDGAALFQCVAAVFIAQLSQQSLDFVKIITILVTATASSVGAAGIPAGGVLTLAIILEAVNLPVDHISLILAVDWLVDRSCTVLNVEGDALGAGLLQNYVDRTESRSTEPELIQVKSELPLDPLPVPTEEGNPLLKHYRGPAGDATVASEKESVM

B1: HERV-W.RBD.MFC (HERV-W.RBD, receptor-binding domain of the human endogenous retrovirus W envelope glycoprotein, fused to a mouse Fc fragment) (Fc fusion)
chain: APPPCRCMTSSSPYQEFLWRMQRPGNIDAPSYRSLSKGTPTFTAHTHMPRNCYHSATLCMHANTHYWTGKMINPSCPGGLGVTVCWTYFTQTGMSDGGGVQGSVDVPRDCGCKPCICTVPEVSSVFIFPPKPKDVLTITLTPKVTCVVVDISKDDPEVQFSWFVDDVEVHTAQTQPREEQFNSTFRSVSELPIMHQDWLNGKEFKCRVNSAAFPAPIEKTISKTKGRPKAPQVYTIPPPKEQMAKDKVSLTCMITDFFPEDITVEWQWNGQPAENYKNTQPIMDTDGSYFVYSKLNVQKSNWEAGNTFTCSVLHEGLHNHHTEKSLSHSPGK
modifications: I-125 on tyrosine or histidine residues in the in vivo experiment only (IODO-GEN method); unlabelled in flow cytometry
notes: The entry may begin with a signal peptide; also called I-125.HERV-W.RBD.MFC
binding result [1]: binds | binding result [2]: binds
